From PMC5227068

Legend:
[1] = biological target: recombinant human CD36 (human), P16671; assay: BLI; Octet Qke; hisCD36 immobilised on Ni-NTA biosensors, CIDR domain in kinetics buffer (PBS, 0.02% Tween-20, 100 ug/ml BSA, 0.005% sodium azide); association 600 or 900 s, dissociation 300 to 600 s; double-reference subtracted data fitted to a 1:1 binding model
[2] = biological target: recombinant human CD36 (human), P16671; assay: BLI; Octet Qke; hisCD36 immobilised on Ni-NTA biosensors, CIDR domains in solution; kinetics buffer (PBS, 0.02% Tween-20, 100 μg/ml bovine serum albumin, 0.005% sodium azide); association 600 or 900 s, dissociation 300 to 600 s; 1:1 fit

Sequence of recombinant human CD36 (human), P16671 (P16671 whole entry, the tested form may be a part): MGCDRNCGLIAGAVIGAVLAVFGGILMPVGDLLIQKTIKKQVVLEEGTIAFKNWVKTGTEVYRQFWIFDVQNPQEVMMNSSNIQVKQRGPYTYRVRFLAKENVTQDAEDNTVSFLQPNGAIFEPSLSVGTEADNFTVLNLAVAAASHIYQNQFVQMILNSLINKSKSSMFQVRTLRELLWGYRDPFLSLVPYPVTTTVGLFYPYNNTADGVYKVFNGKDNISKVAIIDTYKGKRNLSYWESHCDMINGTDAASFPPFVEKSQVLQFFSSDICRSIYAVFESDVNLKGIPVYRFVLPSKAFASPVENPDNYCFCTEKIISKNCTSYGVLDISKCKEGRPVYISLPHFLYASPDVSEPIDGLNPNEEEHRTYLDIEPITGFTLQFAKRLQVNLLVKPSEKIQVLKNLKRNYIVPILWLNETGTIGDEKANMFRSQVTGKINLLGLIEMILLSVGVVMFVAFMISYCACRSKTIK

B1: P. reichenowi var85 CIDRα5 (domain or fragment)
chain: PECGVVRNGGTFQKNDEKEGDCSGKNEEYKPPEGVTEHDINFLYSGEGHEDMTKKLSGFCKKPEDKKGTRNEQWKCYYEKAENNMCKMTNKGANDNEHAKMMSFNDFFNFWVSHLLTDTINWRKELNRCIKASKSETCEKKCNKNCKCFQKWIEKKKVEWEEVKDQYDEQKDMDIFNPYWILEYDLEEQLLPIMEKNNSDLELIGKMKEIIGKNYKNKELKRTDVNAIDILLKHELKDATTCVENDPQENC
modifications: not checked
- koff [1]: 3.42e-05 s⁻¹
- kon [1]: 19800 M⁻¹ s⁻¹
- Kd [2]: 1.7 nM
